Test results published in publication PMC10817188.

Legend:
[1] = molecular target: β-lactamase obtained from Bacillus cereus 569H (Bacillus cereus 569H)
[2] = molecular target: KPC-2 carbapenemase (Klebsiella pneumoniae carbapenemase 2) (Klebsiella pneumoniae (endogenous in ATCC BAA-1705)) (UniProt Q9F663)
[3] = molecular target: β-lactamase obtained from Bacillus cereus 569H (Bacillus cereus 569H); remark: listed apart in the source

UniProt Q9F663, sequence (Q9F663 25-293): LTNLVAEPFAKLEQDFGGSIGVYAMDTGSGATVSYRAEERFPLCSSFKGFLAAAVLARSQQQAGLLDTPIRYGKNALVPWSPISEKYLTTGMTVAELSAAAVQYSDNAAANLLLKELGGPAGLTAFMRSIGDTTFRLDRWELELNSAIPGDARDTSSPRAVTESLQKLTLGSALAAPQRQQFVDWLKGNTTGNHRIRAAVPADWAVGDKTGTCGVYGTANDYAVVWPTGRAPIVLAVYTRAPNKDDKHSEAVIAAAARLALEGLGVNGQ

B1: truncated BLIP-II (tBLIP-II), β-lactamase inhibitory protein-II without its signal sequence (natural protein)
chain: ATSVVAWGGNNDWGEATVPAEAQSGVDAIAGGYFHGLALKGGKVLGWGANLNGQLTMPAATQSGVDAIAAGNYHSLALKDGEVIAWGGNEDGQTTVPAEARSGVDAIAAGAWASYALKDGKVIAWGDDSDGQTTVPAEAQSGVTALDGGVYTALAVKNGGVIAWGDNYFGQTTVPAEAQSGVDDVAGGIFHSLALKDGKVIAWGDNRYKQTTVPTEALSGVSAIASGEWYSLALKNGKVIAWGSSRTAPSSVQSGVSSIEAGPNAAYALKG
In the case of B1, the IC50 of inhibition of nitrocefin hydrolysis by the β-lactamase (inhibitor 0.0078-2 μM, pre-incubated 15 min at 30°C, absorbance at 490 nM) [1] is reported as 51.1 nM, the MIC of meropenem against K. pneumoniae ATCC BAA-1705 (bla KPC-2 positive) with 10 or 20 μM protein (16 μg/mL without protein; 8 at both concentrations) [2] is reported as 8 µg/mL and the reduction in β-lactamase activity (nitrocefin hydrolysis) at 0.0625 μM inhibitor; constant at higher concentrations up to 2 μM [3] is reported as 70%.
